This is an account of results in the RNAGym collection of RNA variant scans (doi:10.1073/pnas.2313332121).

To fix the notation:
B1: TPR t1 (parent)
chain: GACCAAUCUGCCCUCAGAGCUCGAGAACAUCUUCGGAUGCAGAGGAGGCAGGCUUCGGUGGCGCGAUAGCGCCAACGUCCUCAACCUCCAAUGCAUCCCACCACAUGAUGAUGCCUGAAGAGCCUUGGUUUUUUG

The variants in the series derive from B1. Briefly: polymerase ribozyme fitness, log enrichment relative to wild type (log ratio); higher = more active; in vitro selection for triplet polymerase activity. The method, boiled down: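 Frozen incubation at −7 °C formed the core of a single, triplicate in vitro selection round applied to PCR-built, transcribed mutant libraries of each subunit of a heterodimeric triplet polymerase ribozyme. Extended constructs were gel-excised, captured with streptavidin beads and amplified by RT-PCR, and input and output libraries were Illumina-sequenced with a filter of ≥10 input reads and ≥1 read per output. Fitness is the logarithm of genotype enrichment relative to wild-type enrichment, with inverse-variance-weighted replicate averaging, and the logarithm is base 2.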
With C73G A90G C104U U112C A121U U130C, the “polymerase ribozyme fitness (log ratio)” value worked out at 1.89. Next, C72G C102U U106G: -4.73; C72U C101G: -2.18; C72U C85U: -1.48. For C73G C94A C102U, the “polymerase ribozyme fitness (log ratio)” value was -3.82.

As for C73U G117A G128C, the “polymerase ribozyme fitness (log ratio)” value was -5.18.

On to C76U C123G, for which the “polymerase ribozyme fitness (log ratio)” value was 0.558. With C73U A74G C99U, the “polymerase ribozyme fitness (log ratio)” value is -3.36. For C72U A118C, the “polymerase ribozyme fitness (log ratio)” value is -2.89. Regarding C73A U129C, the “polymerase ribozyme fitness (log ratio)” value was -0.459.

Consider A74U A83G C99U A100U G120U, for which the “polymerase ribozyme fitness (log ratio)” value was -6.6. In the case of C73A C124G, the “polymerase ribozyme fitness (log ratio)” value is 0.687. With C72G U78C U109A the figure was -6.55.

As for U78A C82G C115A U130A, the “polymerase ribozyme fitness (log ratio)” value is -0.912. On to C73G C101U U133A, for which the “polymerase ribozyme fitness (log ratio)” value was -1.03.

As for G77A C82A G110A C123A, the “polymerase ribozyme fitness (log ratio)” value is -2.98. Consider C76G C82G G128U, for which the “polymerase ribozyme fitness (log ratio)” value is -3.7. G77U C123G: the “polymerase ribozyme fitness (log ratio)” value came out at 1.23. G77U C123U: the “polymerase ribozyme fitness (log ratio)” value came out at 1.47. With C72U A91C G93U U126G the figure was -4.23. Consider C73G A121C, for which the “polymerase ribozyme fitness (log ratio)” value worked out at 1.42. For C73U U96G G117A, the “polymerase ribozyme fitness (log ratio)” value is -2.78. For the variant U78A C89U C104U, the “polymerase ribozyme fitness (log ratio)” value was -1.1. For C73U U96A, the “polymerase ribozyme fitness (log ratio)” value was -1.16. Next, C73U C79U C104U: -0.0392; C72U C86G U126G: -3.16.

Take C73U G110A: the “polymerase ribozyme fitness (log ratio)” value is -0.705. On to G77U C101G G127A, for which the “polymerase ribozyme fitness (log ratio)” value was -2.44.

As to C72G U87G G117A, the “polymerase ribozyme fitness (log ratio)” value is -2.09. Take C73U C86G C115G U129A: the “polymerase ribozyme fitness (log ratio)” value was -5.03. C72U U126C: the “polymerase ribozyme fitness (log ratio)” value is -0.816. Turning to C72G C123U, the “polymerase ribozyme fitness (log ratio)” value is 0.62. As for C72U C99U A119U, the “polymerase ribozyme fitness (log ratio)” value was -3.8. Take C72G G117C A119U: the “polymerase ribozyme fitness (log ratio)” value is -0.356. Consider G77A C104A G128A, for which the “polymerase ribozyme fitness (log ratio)” value is -3.06. Regarding C73G G117A C124A, the “polymerase ribozyme fitness (log ratio)” value is 0.864. Next, A74C G113U C115U G117A C123A: -6.47; C72U: -0.393; C72G: -0.25. With C73G C115G, the “polymerase ribozyme fitness (log ratio)” value was -0.331. As to C73G C115U, the “polymerase ribozyme fitness (log ratio)” value was -1.97.

On to C73A C123G, for which the “polymerase ribozyme fitness (log ratio)” value stood at 1.74.

Consider C73A C123A, for which the “polymerase ribozyme fitness (log ratio)” value is 1.63. Next, C72U C115U U129G: -2.18. With C72U A75C A118U G120U, the “polymerase ribozyme fitness (log ratio)” value is -0.721.

For the variant C76U G120A, the “polymerase ribozyme fitness (log ratio)” value was found to be 1.69.

With G77U U132A, the “polymerase ribozyme fitness (log ratio)” value is -0.53.

For the variant C72U C99U, the “polymerase ribozyme fitness (log ratio)” value was -3.71. Next, C72U A119U: -0.327; C73G A103C: -4.89; C72U C94G A103G G113U U126A: -5.45. For the variant C72G G127A, the “polymerase ribozyme fitness (log ratio)” value is -1.26.

Turning to C72G G127C, the “polymerase ribozyme fitness (log ratio)” value was -0.368. With C72U G77U, the “polymerase ribozyme fitness (log ratio)” value is -0.309. With C72U G120C the figure was 0.644.

For the variant C72U G120A, the “polymerase ribozyme fitness (log ratio)” value was 0.502. On to A74C C82A A105U, for which the “polymerase ribozyme fitness (log ratio)” value was -2.29. With A74U A121U C124A the figure was 1.47; with C72U G120A C124U, 1.83; with A75G C88G, -1.04. On to C73G G113A, for which the “polymerase ribozyme fitness (log ratio)” value was -1.29. C73G A119U U132C: the “polymerase ribozyme fitness (log ratio)” value is -1.94. Consider C73G C104A, for which the “polymerase ribozyme fitness (log ratio)” value was -1.94. In the case of C73A A119G, the “polymerase ribozyme fitness (log ratio)” value worked out at 0.838. With G77U, the “polymerase ribozyme fitness (log ratio)” value is -0.194. For G77A, the “polymerase ribozyme fitness (log ratio)” value is -0.264. In the case of G77C, the “polymerase ribozyme fitness (log ratio)” value is -0.424. C76G C123U: the “polymerase ribozyme fitness (log ratio)” value came to 1.06. In the case of C73A U78C C94U, the “polymerase ribozyme fitness (log ratio)” value is -0.492. With C73U C124A G127C, the “polymerase ribozyme fitness (log ratio)” value is 1.61.

With U78A C79A A95C U133A, the “polymerase ribozyme fitness (log ratio)” value was -4.23. With C72G G117C U130G the figure was -4.4; with C72U G135C, -0.00236; with C72U C102A G120U U130G, -2.46. With C72U A105G, the “polymerase ribozyme fitness (log ratio)” value was -3.04. On to C73U G127U, for which the “polymerase ribozyme fitness (log ratio)” value was -0.489. Turning to C73U G127C, the “polymerase ribozyme fitness (log ratio)” value is -0.681.

Take G77C U106A A111C C114G U131C: the “polymerase ribozyme fitness (log ratio)” value was -5.23. Take C72U U133G: the “polymerase ribozyme fitness (log ratio)” value is -0.942. For the variant G77U C124G, the “polymerase ribozyme fitness (log ratio)” value was 1.96. For the variant C72U G110U U125A, the “polymerase ribozyme fitness (log ratio)” value was -2.31. With C72G C101A the figure was -0.799; with C72G C101U, -0.7.
